Source: patent publication US7811569

Target: native MSP-3 antigen of Plasmodium falciparum clone 3D7 schizonts and merozoites (Plasmodium falciparum)
Test: flow cytometry on ethanol-fixed permeabilized schizonts, FITC anti-human Fab

Substance control Fab against HibCP has a percent of events under the bar M1 of 2%.
Substance “control antibody against HibCP in the IgG1 format” has a percent of events under the bar M1 of 4%.
